From patent publication US20030129186A1 (published 2003)

Experiments:
[1] = biological target: T1, p97 receptor (melanotransferrin receptor, MTf-R) on bovine brain capillary endothelial cells (BBCECs) (bovine); test: Scatchard plot of specific [125I]-p97 binding to saponin-treated BBCECs (FIG. 12c)
T1 construct: also called its receptor on the BBCECs

[2] = biological target: T1, p97 receptor (melanotransferrin …); test: [125I]-p97 (25 nM) binding to BBCECs, 2 h at 4 C, with or without saponin
[3] = biological target: p97 receptor on isolated human brain capillaries (human); test: cell-based or functional assay
[4] = biological target: T1, p97 receptor (melanotransferrin …); test: cell-based or functional assay
[5] = biological target: T1, p97 receptor (melanotransferrin …); test: Scatchard analysis of [125I]-p97 binding to saponin-permeabilized BBCEC monolayers at 4 C, displaced by unlabelled p97

B1: recombinant human melanotransferrin (p97) (ligand, UniProt P08582 20-709, looked up)
chain: GMEVRWCATSDPEQHKCGNMSEAFREAGIQPSLLCVRGTSADHCVQLIAAQEADAITLDGGAIYEAGKEHGLKPVVGEVYDQEVGTSYYAVAVVRRSSHVTIDTLKGVKSCHTGINRTVGWNVPVGYLVESGRLSVMGCDVLKAVSDYFGGSCVPGAGETSYSESLCRLCRGDSSGEGVCDKSPLERYYDYSGAFRCLAEGAGDVAFVKHSTVLENTDGKTLPSWGQALLSQDFELLCRDGSRADVTEWRQCHLARVPAHAVVVRADTDGGLIFRLLNEGQRLFSHEGSSFQMFSSEAYGQKDLLFKDSTSELVPIATQTYEAWLGHEYLHAMKGLLCDPNRLPPYLRWCVLSTPEIQKCGDMAVAFRRQRLKPEIQCVSAKSPQHCMERIQAEQVDAVTLSGEDIYTAGKTYGLVPAAGEHYAPEDSSNSYYVVAVVRRDSSHAFTLDELRGKRSCHAGFGSPAGWDVPVGALIQRGFIRPKDCDVLTAVSEFFNASCVPVNNPKNYPSSLCALCVGDEQGRNKCVGNSQERYYGYRGAFRCLVENAGDVAFVRHTTVFDNTNGHNSEPWAAELRSEDYELLCPNGARAEVSQFAACNLAQIPPHAVMVRPDTNIFTVYGLLDKAQDLFGDDHNKNGFKMFDSSNYHGQDLLFKDATVRAVPVGEKTTYRGWLGLDYVAALEGMSSQQC
notes: also called MTf
[1]
  Kd: ~1000 nM
[2]
  fold increase of [125I]-p97 associated with cells after saponin permeabilization (against untreated cells): 4 fold
[3]
  decrease in uptake of [125I]-p97 (100 nM) into isolated human brain capillaries, 1 h at 37 C, with a 50-fold molar excess of unlabelled p97: 60%
[4]
  decrease in apical-to-basal transport of [125I]-p97 (25 nM) across BBCEC monolayers with a 200-fold molar excess of unlabelled p97: 69%
[5]
  Kd: 1400 nM
